Laboratory results from patent publication US20040176285A1, “Tip39 polypeptides” (priority 2001, published 2004).
Entries after “also recorded” stand apart in the source; their conditions may differ. Where a SMILES comes first, the peptide text is derived from it. Where no end group is shown, it is not given here.

Key:
human PTH2 receptor [1] = target: T1, human PTH2 receptor (Homo sapiens, UniProt P49190); test: Inhibition of agonist-stimulated cAMP accumulation in hPR2-20 LLCPK1 cells; format: cell-based
T1 construct: expressed in transfected cells
T1 sequence (P49190 25-550): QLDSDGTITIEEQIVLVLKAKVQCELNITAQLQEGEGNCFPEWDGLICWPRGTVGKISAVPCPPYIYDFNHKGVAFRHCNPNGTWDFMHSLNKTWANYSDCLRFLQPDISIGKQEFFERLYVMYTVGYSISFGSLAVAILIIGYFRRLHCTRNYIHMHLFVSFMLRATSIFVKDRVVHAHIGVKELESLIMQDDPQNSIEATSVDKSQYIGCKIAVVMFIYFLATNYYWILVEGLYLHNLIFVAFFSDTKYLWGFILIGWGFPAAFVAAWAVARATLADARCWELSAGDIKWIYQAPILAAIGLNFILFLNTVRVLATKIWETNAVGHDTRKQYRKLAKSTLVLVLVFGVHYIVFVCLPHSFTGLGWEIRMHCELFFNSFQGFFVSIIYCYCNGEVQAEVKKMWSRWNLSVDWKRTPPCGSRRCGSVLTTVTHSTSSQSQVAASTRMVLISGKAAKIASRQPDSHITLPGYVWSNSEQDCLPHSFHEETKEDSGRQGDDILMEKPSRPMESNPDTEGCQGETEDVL
Description: FIG. 8. […] Data are expressed as % of half-maximal cAMP accumulation and represent the results (mean±SE) of at least three independent experiments.

PTH1R [2] = target: T2, PTH1R (Homo sapiens, UniProt Q03431); test: Ligand-stimulated cAMP accumulation in HKrk-B7 cells; format: cell-based; parameters: expressed in transfected cells; details: HKrk-B7 cells
T2 sequence (Q03431 27-593): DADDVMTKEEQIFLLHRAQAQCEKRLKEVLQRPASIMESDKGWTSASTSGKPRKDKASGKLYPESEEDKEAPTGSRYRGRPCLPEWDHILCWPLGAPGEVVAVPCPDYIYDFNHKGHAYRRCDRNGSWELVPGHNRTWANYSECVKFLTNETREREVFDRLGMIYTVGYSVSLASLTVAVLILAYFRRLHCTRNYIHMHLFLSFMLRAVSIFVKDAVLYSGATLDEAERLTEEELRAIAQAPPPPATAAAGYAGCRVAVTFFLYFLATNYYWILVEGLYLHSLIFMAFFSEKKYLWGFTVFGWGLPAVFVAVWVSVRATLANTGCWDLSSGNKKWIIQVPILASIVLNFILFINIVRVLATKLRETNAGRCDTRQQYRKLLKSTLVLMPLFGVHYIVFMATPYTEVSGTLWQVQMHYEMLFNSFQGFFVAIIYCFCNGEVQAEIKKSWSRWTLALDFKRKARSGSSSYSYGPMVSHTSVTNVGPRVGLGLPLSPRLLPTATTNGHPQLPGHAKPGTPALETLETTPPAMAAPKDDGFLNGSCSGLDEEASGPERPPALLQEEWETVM
Method: DMEM, Trypsin/EDTA, and penicillin G/streptomycin and horse serum were from Gibco/BRL, Life Technologies, Gaithersburg, Md. LLC-PK, expressing the recombinant human PTH1R (HKrk-B7 cells) and SaOS-2 cells expressing the wild-type PTH1R endogenously were cultured in DMEM supplemented with 10% heat-inactivated fetal bovine serum, 100 U/ml penicillin, 100 μg/ml streptomycin, as previously described (Gardella, T. J., et al., J. Biol. Chem. 271:19888-19893 (1996); Fukayama, S., et al., Endocrinology 134:1851-1858 (1994)); both cell lines were maintained in a humidified atmosphere containing 95% air and 5% CO2. After seeding, medium was replaced daily, until cells were used for radioligand binding or cAMP accumulation assays.
Na^125I (specific activity: 2,000 Ci/mmol) was purchased from DuPont/NEN, Boston, Mass. Fetal bovine serum, 3-isobutyl-1-methyl-xanthine (IBMX), and BSA were from Sigma, St. Louis, Mo., and trifluoroacetic acid (TFA) was from Pierce, Rockford, Ill. Radiolabeled rPTH(1-34) and PTHrP(1-36) were prepared by the chloramine-T method, followed by HPLC purification using a 30-50% ACN/0.1% TFA gradient over 30 minutes; radioreceptor assays were performed in 24-well plates as previously described (Gardella, T. J., et al., J. Biol. Chem. 271:19888-19893 (1996); Fukayama, S. et al., Endocrinology 134:1851-1858 (1994)). In brief, each well (final volume 500 μl) contained binding buffer (BB; 50 mM Tris-HCl (pH 7.7), 100 mM NaCl, 5 mM KCl, 2 mM CaCl2, 5% heat-inactivated horse serum, and 0.5% heat-inactivated fetal bovine serum), the ^125I-labeled PTH or PTHrP analog (100,000 to 200,000 cpm) was incubated in the absence or presence of increasing concentrations of unlabeled peptides. After 4 h at 16° C., buffer was completely removed, the cells were rinsed with cold BB and lysed with 1 M NaOH. The entire lysate was counted for γ-irradiation. Specific binding was determined after subtracting radioactivity bound in the presence of maximal concentrations of unlabeled competing peptide (10^−6 M). Agonist-dependent stimulation of cAMP accumulation by HKrk-B7 and SaOS-2 cells (48-well plates; stimulation at room temperature for 45 minutes) and the subsequent measurement of cAMP by radioimmunoassay was performed as previously described (Gardella, T. J., et al., J. Biol. Chem. 271:19888-19893 (1996); Bergwitz, C., et al., Endocrinology 139:723-732 (1998)). Data were analyzed and graphically illustrated using the graph-pad prism software package.
The values for EC50 and Vmax (mean±SE) are derived from at least three independent experiments.

PTH1R [3] = target: T2, PTH1R; test: Inhibition of agonist-stimulated cAMP accumulation in SaOS-2 cells; format: cell-based; parameters: expressed in transfected cells; details: SaOS-2 cells (stated for both cell lines); agonists 0.15-0.3 nM
Description: FIG. 4A-4F. Inhibition of agonist-stimulated cAMP accumulation in HKrk-B7 cells (FIG. 4A-4C) or SaOS-2 cells (FIG. 4D-4F). […] Data are expressed as % of half-maximal cAMP accumulation and represent the results (mean±SE) of at least three independent experiments.
Na^125I (specific activity: 2,000 Ci/mmol) was purchased from DuPont/NEN, Boston, Mass. Fetal bovine serum, 3-isobutyl-1-methyl-xanthine (IBMX), and BSA were from Sigma, St. Louis, Mo., and trifluoroacetic acid (TFA) was from Pierce, Rockford, Ill. Radiolabeled rPTH(1-34) and PTHrP(1-36) were prepared by the chloramine-T method, followed by HPLC purification using a 30-50% ACN/0.1% TFA gradient over 30 minutes; radioreceptor assays were performed in 24-well plates as previously described (Gardella, T. J., et al., J. Biol. Chem. 271:19888-19893 (1996); Fukayama, S. et al., Endocrinology 134:1851-1858 (1994)). […] The entire lysate was counted for γ-irradiation. Specific binding was determined after subtracting radioactivity bound in the presence of maximal concentrations of unlabeled competing peptide (10^−6 M). […] Data were analyzed and graphically illustrated using the graph-pad prism software package.

human PTH2 receptor [4] = target: T1, human PTH2 receptor; test: Ligand-stimulated cAMP accumulation in hPR2-20 LLCPK1 cells; format: cell-based
[5] = target: T3, human PTH/PTHrP receptor (PTH1R) (human, UniProt Q03431 27-593); test: radioreceptor competition on HKrk-B7 cells
T3 construct: whole, on cells; HKrk-B7 cells about 10^6 receptors/cell; SaOS-2 about 30,000 receptors/cell; also called hPTH-1 receptor; PTH-1 receptor
T3 sequence (looked up): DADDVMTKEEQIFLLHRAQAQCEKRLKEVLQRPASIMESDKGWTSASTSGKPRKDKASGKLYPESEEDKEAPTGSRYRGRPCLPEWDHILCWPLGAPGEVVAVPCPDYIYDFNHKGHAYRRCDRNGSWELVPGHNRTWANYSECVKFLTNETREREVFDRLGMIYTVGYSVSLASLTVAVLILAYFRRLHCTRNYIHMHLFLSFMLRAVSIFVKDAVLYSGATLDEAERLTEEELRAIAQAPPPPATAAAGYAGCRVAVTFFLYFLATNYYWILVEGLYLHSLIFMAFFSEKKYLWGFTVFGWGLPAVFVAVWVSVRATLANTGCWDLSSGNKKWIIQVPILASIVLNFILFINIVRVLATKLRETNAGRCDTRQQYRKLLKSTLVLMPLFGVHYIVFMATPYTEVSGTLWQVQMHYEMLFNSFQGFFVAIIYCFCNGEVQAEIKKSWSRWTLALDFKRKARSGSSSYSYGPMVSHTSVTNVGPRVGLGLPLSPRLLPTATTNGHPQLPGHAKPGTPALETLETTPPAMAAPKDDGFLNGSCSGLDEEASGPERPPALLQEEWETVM
Method: (§1) Specific binding was determined after subtracting radioactivity bound in the presence of maximal concentrations of unlabeled competing peptide (10⁻⁶ M). Agonist-dependent stimulation of cAMP accumulation by HKrk-B7 and SaOS-2 cells (48-well plates; stimulation at room temperature for 45 minutes) and the subsequent measurement of cAMP by radioimmunoassay was performed as previously described (Gardella, T. J., et al., J. Biol. Chem. 271:19888-19893 (1996); Bergwitz, C., et al., Endocrinology 139:723-732 (1998)). Data were analyzed and graphically illustrated using the graph-pad prism software package.

[6] = target: T3, human PTH/PTHrP receptor (PTH1R); test: radioreceptor competition on HKrk-B7 cells; either tracer
Method: as §1

[7] = target: T3, human PTH/PTHrP receptor (PTH1R); test: radioreceptor competition on HKrk-B7 cells; tracer 125I-[Tyr36]PTHrP(1-36)amide
Method: (§2) Na¹²⁵I (specific activity: 2,000 Ci/mmol) was purchased from DuPont/NEN, Boston, Mass. Fetal bovine serum, 3-isobutyl-1-methyl-xanthine (IBMX), and BSA were from Sigma, St. Louis, Mo., and trifluoroacetic acid (TFA) was from Pierce, Rockford, Ill. […] After 4 h at 16° C., buffer was completely removed, the cells were rinsed with cold BB and lysed with 1 M NaOH. The entire lysate was counted for γ-irradiation. Specific binding was determined after subtracting radioactivity bound in the presence of maximal concentrations of unlabeled competing peptide (10⁻⁶ M). Agonist-dependent stimulation of cAMP accumulation by HKrk-B7 and SaOS-2 cells (48-well plates; stimulation at room temperature for 45 minutes) and the subsequent measurement of cAMP by radioimmunoassay was performed as previously described (Gardella, T. J., et al., J. Biol. Chem. 271:19888-19893 (1996); Bergwitz, C., et al., Endocrinology 139:723-732 (1998)). Data were analyzed and graphically illustrated using the graph-pad prism software package.

[8] = target: T3, human PTH/PTHrP receptor (PTH1R); test: radioreceptor competition on HKrk-B7 cells; tracer 125I-rat [Nle8,21,Tyr34]PTH(1-34)amide
Method: as §2

[9] = target: T3, human PTH/PTHrP receptor (PTH1R); test: radioreceptor competition on HKrk-B7 cells, 125I-rPTH(1-34) or 125I-PTHrP(1-36)
Method: as §2

CSCC[C@H](NC(=O)[C@H](Cc1ccc(O)cc1)NC(=O)[C@H](CO)NC(=O)[C@H](CC(N)=O)NC(=O)[C@H](CC(C)C)NC(=O)[C@H](Cc1c[nH]c2ccccc12)NC(=O)[C@H](Cc1c[nH]cn1)NC(=O)[C@H](CCCNC(=N)N)NC(=O)[C@H](CCCNC(=N)N)NC(=O)[C@H](CCC(=O)O)NC(=O)[C@H](CC(C)C)NC(=O)[C@H](C)NC(=O)[C@H](C)NC(=O)[C@H](CC(C)C)NC(=O)[C@H](CC(C)C)NC(=O)[C@H](CCCNC(=N)N)NC(=O)[C@H](C)NC(=O)[C@H](CCCNC(=N)N)NC(=O)[C@H](CCC(=O)O)NC(=O)[C@H](CCCNC(=N)N)NC(=O)[C@H](Cc1ccccc1)NC(=O)[C@H](C)N)C(=O)N[C@@H](Cc1c[nH]cn1)C(=O)N[C@@H](CCCCN)C(=O)N[C@@H](CC(C)C)C(=O)N[C@@H](CC(C)C)C(=O)N[C@H](C(=O)N[C@@H](CC(C)C)C(=O)N[C@@H](CC(=O)O)C(=O)N[C@@H](C)C(=O)N1CCC[C@H]1C(N)=O)C(C)C [TIP(9-39)] (H-AFRERARLLAALERRHWLNSYMHKLLVLDAP-NH2)
higher antagonist concentration required against human TIP39 than against PTH-(1-34) (human PTH2 receptor [1]; 1 nM of either agonist): approximately 14 fold | antagonism at the PTH2 receptor (in words) (human PTH2 receptor [1]; P2R LLCPK1 cells, FIG. 8): antagonist of the PTH2 receptor | stimulation of cAMP accumulation at the PTH1R (in words) (PTH1R [2]): lack of second messenger formation; also recorded: failed to stimulate cAMP accumulation | inhibition of agonist actions (in words) (PTH1R [3]): inhibited the actions of the three agonists

CSCC[C@H](NC(=O)[C@H](Cc1ccc(O)cc1)NC(=O)[C@H](CO)NC(=O)[C@H](CC(=O)O)NC(=O)[C@H](CC(C)C)NC(=O)[C@H](Cc1c[nH]c2ccccc12)NC(=O)[C@H](CCC(=O)O)NC(=O)[C@H](CCCNC(=N)N)NC(=O)[C@H](CCCNC(=N)N)NC(=O)[C@H](CCC(=O)O)NC(=O)[C@H](CC(C)C)NC(=O)[C@H](C)NC(=O)[C@H](C)NC(=O)[C@H](CC(C)C)NC(=O)[C@H](CC(C)C)NC(=O)[C@H](CCCNC(=N)N)NC(=O)[C@H](C)NC(=O)[C@H](CCCNC(=N)N)NC(=O)[C@H](CCC(=O)O)NC(=O)[C@H](CCCNC(=N)N)NC(=O)[C@H](Cc1ccccc1)NC(=O)[C@H](C)NC(=O)[C@H](C)NC(=O)[C@H](CC(=O)O)NC(=O)[C@H](CC(=O)O)NC(=O)[C@H](C)NC(=O)[C@H](CC(C)C)NC(=O)[C@H](C)NC(=O)[C@H](CC(C)C)NC(=O)[C@@H](N)CO)C(=O)N[C@@H](CCC(N)=O)C(=O)N[C@@H](CCCCN)C(=O)N[C@@H](CC(C)C)C(=O)N[C@@H](CC(C)C)C(=O)N[C@@H](CC(C)C)C(=O)N[C@@H](CC(C)C)C(=O)N[C@@H](CC(=O)O)C(=O)N[C@@H](C)C(=O)N1CCC[C@H]1C(N)=O [mouse TIP39] (H-SLALADDAAFRERARLLAALERREWLDSYMQKLLLLDAP-NH2)
maximum cAMP accumulation (human PTH2 receptor [4]): 133.7±3.9 pmol/well

ALADDAAFRERARLLAALERRHWLNSYMHKLLVLDAP (not fully specified (C-terminus)) [TIP(3-39)]
fold higher apparent binding affinity in comparison to the parent peptide TIP(1-39) [5]: ~3 fold | fold improvement in apparent binding affinity relative to TIP(1-39) [6]: ≤ 6 fold | IC50 [7]: 68 nM | IC50 [8]: 96 nM

ALERRHWLNSYMHKLLVLDAP [TIP(19-39)]
binding result [9]: no binding

RHWLNSYMHKLLVLDAP [TIP(23-39)]
binding result [9]: no binding
